From patent US20110044985A1
Where a chain is given by its changes, count along the chain named. In names and notes the source's numbering stands. One block for each binder: values may come before it.

Target: Aβ1-40
Test: ELISA, nonbiotinylated peptide on plate

Sequence of Aβ1-40 (peptide, as listed by the source): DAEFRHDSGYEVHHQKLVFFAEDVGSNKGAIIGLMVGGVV

A450 ELISA: 0.23 A450
B1: 6G heavy chain mutant variant 7D (N101C) (antibody, V domains shown)
VH: QVQLVQSGAEVKKPGASVKVSCKASGYTFTTYAIHWVRQAPGQGLEWMGFTSPYSGVSNYNQKFKGRVTMTRDTSTSTVYMELSSLRSEDTAVYYCARFDCYDRGYVRDYWGQGTLVTVS
VL: DIVMTQSPDSLAVSLGERATINCRASESVDNDRISFLNWYQQKPGQPPKLLIYAATKQGTGVPDRFSGSGSGTDFTLTISSLQAEDVAVYYCQQSKEFPWSFGGGTKVEIKR

A450 ELISA: 0.22 A450
B2: 6G heavy chain mutant variant 9E (N101R) (antibody, V domains shown)
VH: B1 VH with C101R
VL: B1 VL
